According to paper PMC8004131 (Viruses, 2021):

Key:
[1] = biological target: Mojiang virus attachment glycoprotein (MojV G), full length, S-tagged (Mojiang virus); assay: cross-linking
[2] = biological target: soluble tetrameric Mojiang virus attachment glycoprotein (MojV sG) (Mojiang virus); assay: negative-stain electron microscopy
[3] = biological target: soluble trimeric Mojiang virus fusion glycoprotein (MojV sF) (Mojiang virus); assay: negative-stain electron microscopy
[4] = biological target: Mojiang virus fusion glycoprotein (MojV F), full length, S-tagged (Mojiang virus); assay: cross-linking
[5] = biological target: soluble trimeric Cedar virus fusion glycoprotein (CedV sF) (Cedar virus); assay: negative-stain electron microscopy
[6] = biological target: soluble tetrameric Ghana virus attachment glycoprotein (GhV sG) (Ghana virus); assay: negative-stain electron microscopy
cross-linking = biological target: the molecule itself; assay: cross-linking

Molecule: Mojiang virus attachment glycoprotein (MojV G), full length, S-tagged (natural protein)
- stoichiometry N [1]: 4

Molecule: soluble tetrameric Mojiang virus attachment glycoprotein (MojV sG) (domain or fragment)
- stoichiometry N [2]: 4

Molecule: soluble trimeric Mojiang virus fusion glycoprotein (MojV sF) (domain or fragment)
- stoichiometry N [3]: 3

Molecule: Mojiang virus fusion glycoprotein (MojV F), full length, S-tagged (natural protein)
- stoichiometry N [4]: 3

Molecule: soluble trimeric Cedar virus fusion glycoprotein (CedV sF) (domain or fragment)
- stoichiometry N [5]: 3

Molecule: soluble tetrameric Ghana virus attachment glycoprotein (GhV sG) (domain or fragment)
- stoichiometry N [6]: 4

B1: Cedar virus attachment glycoprotein (CedV G), full length, S-tagged (natural protein)
chain: MLSQLQKNYLDNSNQQGDKMNNPDKKLSVNFNPLELDKGQKDLNKSYYVKNKNYNVSNLLNESLHDIKFCIYCIFSLLIIITIINIITISIVITRLKVHEENNGMESPNLQSIQDSLSSLTNMINTEITPRIGILVTATSVTLSSSINYVGTKTNQLVNELKDYITKSCGFKVPELKLHECNISCADPKISKSAMYSTNAYAELAGPPKIFCKSVSKDPDFRLKQIDYVIPVQQDRSICMNNPLLDISDGFFTYIHYEGINSCKKSDSFKVLLSHGEIVDRGDYRPSLYLLSSHYHPYSMQVINCVPVTCNQSSFVFCHISNNTKTLDNSDYSSDEYYITYFNGIDRPKTKKIPINNMTADNRYIHFTFSGGGGVCLGEEFIIPVTTVINTDVFTHDYCESFNCSVQTGKSLKEICSESLRSPTNSSRYNLNGIMIISQNNMTDFKIQLNGITYNKLSFGSPGRLSKTLGQVLYYQSSMSWDTYLKAGFVEKWKPFTPNWMNNTVISRPNQGNCPRYHKCPEICYGGTYNDIAPLDLGKDMYVSVILDSDQLAENPEITVFNSTTILYKERVSKDELNTRSTTTSCFLFLDEPWCISVLETNRFNGKSIRPEIYSYKIPKYC
notes: source: BSR-T7/5, transfected, on cells; precipitated from lysate with S protein agarose; not shown: S-tag, N-terminal, kept
- stoichiometry N (cross-linking): 4

B2: Hendra virus attachment glycoprotein (HeV G), full length, S-tagged (natural protein)
chain: MMADSKLVSLNNNLSGKIKDQGKVIKNYYGTMDIKKINDGLLDSKILGAFNTVIALLGSIIIIVMNIMIIQNYTRTTDNQALIKESLQSVQQQIKALTDKIGTEIGPKVSLIDTSSTITIPANIGLLGSKISQSTSSINENVNDKCKFTLPPLKIHECNISCPNPLPFREYRPISQGVSDLVGLPNQICLQKTTSTILKPRLISYTLPINTREGVCITDPLLAVDNGFFAYSHLEKIGSCTRGIAKQRIIGVGEVLDRGDKVPSMFMTNVWTPPNPSTIHHCSSTYHEDFYYTLCAVSHVGDPILNSTSWTESLSLIRLAVRPKSDSGDYNQKYIAITKVERGKYDKVMPYGPSGIKQGDTLYFPAVGFLPRTEFQYNDSNCPIIHCKYSKAENCRLSMGVNSKSHYILRSGLLKYNLSLGGDIILQFIEIADNRLTIGSPSKIYNSLGQPVFYQASYSWDTMIKLGDVDTVDPLRVQWRNNSVISRPGQSQCPRFNVCPEVCWEGTYNDAFLIDRLNWVSAGVYLNSNQTAENPVFAVFKDNEILYQVPLAEDDTNAQKTITDCFLLENVIWCISLVEIYDTGDSVIRPKLFAVKIPAQCSES
- stoichiometry N (cross-linking): 4
